Data on one molecule can be found in US20030113743A1 (BAYLOR COLLEGE OF MEDICINE HYBRITECH, published 2003).

What all share (assay): covalent complex formation, SDS-PAGE and Western blot with HK1G586.1
One assay deals with T1, antithrombin III (human, UniProt P01008 33-464).
T1 construct: Serpin, used at 20 µM
The procedure:
(§1) FIG. 18 depicts Western blot analysis of hK2 incubated with protease inhibitors. Each sample was separated on a 8-25% gradient SDS-PAGE, blotted and probed with HK1G586.1. hK2 was incubated for 4 hours at 37° C. with the following inhibitors: Lane 1, antichymotrypsin (ACT); lane 2, alpha 2-antiplasmin; lane 3, anti-thrombin III; lane 4, alpha 1-protease inhibitor (anti-trypsin); lane 5, alpha 2-macroglobulin; lanes 1 and 2 show a covalent complex of the predicted Mr of 90-100 kD. Serpin inhibitors were employed at 20 μM, macroglobulin at 2.8 μM, and hK2 at 0.175 μM.
(§2) To test for covalent complex formation, 0.175 μM hK2 was incubated with 20 μM of inhibitor at pH 8 in 100 mM borate buffer. Inhibitors tested were 1-antichymotrypsin, 1-antitrypsin, 1-antiplasmin, antithrombin and 2-macroglobulin. To 5 μl of hK2 (10 μg/ml) was added the calculated μg of inhibitor prepared in 100 mM borate buffer and, if needed, each sample brought up to a total volume of 10 μl. Samples were incubated for 3 hours at 37° C. whereupon 1.5 μl of 7 X PhastSystem SDS sample buffer containing 35% 2-mercaptoethanol was added and the sample boiled for 3 minutes in a water bath. Samples were diluted 1/4 in SDS sample buffer prior to application to SDS/PAGE and Western analyses.

For another assay, the target named is T2, antichymotrypsin (ACT) (human, UniProt P01011 24-423).
T2 construct: Serpin, used at 20 µM; also called 1-antichymotrypsin
T2 sequence (looked up): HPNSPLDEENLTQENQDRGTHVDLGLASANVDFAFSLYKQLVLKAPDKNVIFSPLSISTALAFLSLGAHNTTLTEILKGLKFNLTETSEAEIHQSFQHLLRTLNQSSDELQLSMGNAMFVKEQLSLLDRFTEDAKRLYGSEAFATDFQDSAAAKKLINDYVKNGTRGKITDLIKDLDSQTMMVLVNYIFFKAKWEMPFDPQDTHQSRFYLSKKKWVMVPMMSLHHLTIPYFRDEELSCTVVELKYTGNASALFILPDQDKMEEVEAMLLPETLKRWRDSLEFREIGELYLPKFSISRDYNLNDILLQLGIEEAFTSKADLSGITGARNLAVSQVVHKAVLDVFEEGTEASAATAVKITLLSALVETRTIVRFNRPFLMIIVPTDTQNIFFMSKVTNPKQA
The procedure: as §1, §2

Assay [1] concerns the target T3, α1-antitrypsin (alpha 1-protease inhibitor) (human, UniProt P01009 25-418).
T3 construct: Serpin, used at 20 µM
Here is the method:
as §1, §2

Another assay concerns the target T4, alpha 2-antiplasmin (human, UniProt P08697 40-491, limits assumed).
T4 construct: Serpin, used at 20 µM; also called α2-antiplasmin; 1-antiplasmin
T4 sequence (looked up): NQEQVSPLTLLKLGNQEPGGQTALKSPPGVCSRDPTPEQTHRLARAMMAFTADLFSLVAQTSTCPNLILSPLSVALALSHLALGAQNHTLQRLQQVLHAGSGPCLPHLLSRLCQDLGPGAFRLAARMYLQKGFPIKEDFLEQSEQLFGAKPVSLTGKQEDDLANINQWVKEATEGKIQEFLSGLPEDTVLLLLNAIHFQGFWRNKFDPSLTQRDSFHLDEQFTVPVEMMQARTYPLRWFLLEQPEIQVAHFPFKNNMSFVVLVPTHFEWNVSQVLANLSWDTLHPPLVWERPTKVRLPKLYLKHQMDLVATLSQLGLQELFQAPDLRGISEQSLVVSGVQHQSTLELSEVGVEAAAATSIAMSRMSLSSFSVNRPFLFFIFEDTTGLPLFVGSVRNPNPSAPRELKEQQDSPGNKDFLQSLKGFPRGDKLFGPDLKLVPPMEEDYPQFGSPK
Here is the method: as §1, §2

T3 sequence (P01009 25-418 limits assumed): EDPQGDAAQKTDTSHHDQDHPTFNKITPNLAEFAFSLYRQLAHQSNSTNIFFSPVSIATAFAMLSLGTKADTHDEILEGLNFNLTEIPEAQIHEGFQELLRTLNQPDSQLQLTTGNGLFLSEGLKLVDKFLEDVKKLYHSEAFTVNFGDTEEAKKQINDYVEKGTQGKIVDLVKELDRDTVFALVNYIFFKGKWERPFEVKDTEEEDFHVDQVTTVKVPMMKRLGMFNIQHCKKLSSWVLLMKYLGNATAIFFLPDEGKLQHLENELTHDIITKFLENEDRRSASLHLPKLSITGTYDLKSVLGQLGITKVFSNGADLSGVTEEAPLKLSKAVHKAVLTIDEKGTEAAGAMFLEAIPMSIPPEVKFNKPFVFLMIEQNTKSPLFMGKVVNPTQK
T1 sequence (P01008 33-464 limits assumed): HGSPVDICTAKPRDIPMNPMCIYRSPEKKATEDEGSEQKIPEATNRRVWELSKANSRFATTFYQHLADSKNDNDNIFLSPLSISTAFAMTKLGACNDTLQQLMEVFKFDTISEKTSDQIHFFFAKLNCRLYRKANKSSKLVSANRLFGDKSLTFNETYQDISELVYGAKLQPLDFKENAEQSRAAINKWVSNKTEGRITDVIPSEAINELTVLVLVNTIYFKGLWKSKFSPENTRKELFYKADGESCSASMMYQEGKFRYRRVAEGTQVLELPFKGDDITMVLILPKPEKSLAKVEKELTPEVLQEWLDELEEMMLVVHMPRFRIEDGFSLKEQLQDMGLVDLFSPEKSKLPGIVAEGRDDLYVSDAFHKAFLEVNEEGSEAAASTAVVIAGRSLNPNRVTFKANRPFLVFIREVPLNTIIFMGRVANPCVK

B1: wild type mature hK2 (prostate-specific glandular kallikrein protein) (enzyme)
chain: not shown
notes: From spent medium of AV12-hK2, PC3-hK2 and DU145-hK2 cells, LNCaP medium, seminal fluid or prostate tissue, depending on the experiment; also called native hK2
As to B1, the binding result in the assay with antithrombin III was “no binding (tested: 20 µM inhibitor, 0.175 µM hK2)”; in the assay with antichymotrypsin (ACT), “binds”; in assay [1], “no binding (tested: 20 µM inhibitor, 0.175 µM hK2)”; with alpha 2-antiplasmin, “binds”.
